Measured values published in patent US20080081047A1 (published 2008).
Residue numbers refer to the chain shown, from its start.

B1: F26G18 (antibody, V domains shown)
VH: LVQLEESGTVLPRPGASVKMSCKASGYTFTSYWMHWVKQRPGQGLEWIGAIYPGNSDTNYNQKFKGRATLTAVTSTSTASMELSSLTNEDSAVYYCTRDGYGSLYYYAMDFWGQGTSVTVSS
VL: ELVMTQSPSSLSASLGDRVTISCRASQDISNYLNWYQQKPDGTVKLLIYYTSRLHAGVPSRFSGSGSGTDYSLTISNLEQEDIATYFCQQGYTLPYTFGGGTKLEIKR
B2: F26G6 (antibody, V domains shown)
VH: QVQLQQPGAELVKPGASVKVSCKASGYTFTNYWIHWVKQRPGQGLEWIGEINPGNGRTNYNGNFMNKATLTVDKSSNTAYMQLSSLTSEDSAVYHCARLDYWGQGTTLTVSS
VL: ELVMTQSPASLSVATGKKVTIRCISSTDIDDDMNWYQQKAGKPPKLLISEGNIFSPGVPSRFSSSGNGTDFVFTVENTLSEDVADNYCLQSDNMPFTFGSGTKLGIKR
B3: F26G8 (antibody, V domains shown)
VH: VQLLESGAELVKPGASVKVSCKASGYTFTSYWIHWVKQRPGQGLEWIGEINPSNGRTNYNGNFESKATLTVDKSSNTAYMHLSSLTYEDSAVYHCTRLDYWGQGTTLTVSS
VL: B2 VL with A14I, S26N, M33L, Y36S, Q38L, K42E, V75I, D85N, L89F, G105E
B4: F26G19 (antibody, V domains shown)
VH: EVQLEESGTVLARPGASVKMSCKASGYTFTTYRMHWIKQRPGQGLEWIGAIYPGNSDTTYNQKFKDKAKLTAVTSTSSAYMELSSLTNEDSAVYFCTREGIPQLLRTLDYWGQGTSVTVSS
VL: DILMTQSPSSLSASLGERVSLTCRASQEISGYLSWLQEKPDGTIKRLIYAASTLDSGVPKRFSGSRSGSDYSLTISSLESEDFADYYCLQYVSYPWTFGGGTKLEIKR

These binders were tested against T1, SARS-HCoV spike protein (SARS-coronavirus (Tor-3 strain), UniProt P59594 14-1255) (assay: ELISA, OD on native virus against OD on heat-denatured virus).

Binder | O.D. Reduction, Fold [fold] | O.D. Reduction, Percent [%]
B1 | 3.6 | 72
B2 | 2.7 | 62
B3 | 2.8 | 29
B4 | 6 | 83

The binders below were run against T1, SARS-HCoV spike protein (assay: ELISA, virus heated 100 C 10 min, coated at 32 ng/well).

Binder | ELISA OD 405 nm, Denatured Lysate [OD 405 nm]
B1 | 0.501
B2 | 0.6
B3 | 0.497
B4 | 0.253

These binders were tested against T1, SARS-HCoV spike protein (assay: ELISA, native gradient purified virus coated at 32 ng/well).

Binder | ELISA OD 405 nm, Viral Lysate (native) [OD 405 nm]
B1 | 1.81
B2 | 1.6
B3 | 1.41
B4 | 1.5
